In data set [1] the test system is 4-hydroxyphenylpyruvate dioxygenase (HPPD). Nature of the data set: Insensitivity parameter (ON × OFF) and trait fitness (ON × OFF × kcat/KM or × kcat). Format: biochemical, Z. mays. Details: key to ON × OFF / Insensitivity, mesotrione, ON × OFF / Insensitivity, tembotrione, ON × OFF / Insensitivity, topramezone, ON × OFF / Insensitivity, sulcotrione, ON × OFF / Insensitivity, isoxaflutole (DKN), ON × OFF: insensitivity = ON rate ratio × OFF rate ratio (surrogate for KD). The essentials: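 Calculated, not measured directly: ON rate ratio × OFF rate ratio gives an insensitivity parameter serving as a KD surrogate.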

Data set [2] shares this test system. Description: ON rate ratio: HPPD reaction rate with vs without inhibitor in the 70 to 90 second interval. The format is biochemical, Z. mays. The gist of the method: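 Time courses of HPPD reactions, 60 or 120 nM enzyme with 100 μM HPP substrate, run with and without 4 μM inhibitor (e.g. mesotrione, tembotrione). Value is the rate with inhibitor over rate without, taken over 70–90 s; higher ratio reflects slower kON.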

Where [3] appears, read: Table 7, tembotrione, combinatorial variants.
Setting [4] is: inhibitor diketonitrile form of isoxaflutole (DKN).

B1: P056028-A-01 (protein)
chain: MGPTPTATAAGAAVAAASAAEQAAFRLVGHRNFVRFNPRSDRFQTLAFHHVELWCADAASAAGRFSFALGVPLAARSDLSTGNSAHASLLLRSGSLSLLFTAPYAHGADAATAALPSFSAAAARRFAADHGLAVRAVALRVADAEDAFRASVAAGARPAFGPVDLGRGFRLAEVELYGDVVLRYVSYPDGAAGEPFLPGFEGVASPGAADYGLSRFDHIVGNVPELAPAAAYMAGFTGFHEFAEFTTEDVGTTESGLNSMALANNSENVLLPLNEPVHGTKRRSQIQTFLDHHGGPGVQHIALASDDVLRTLREMRARSAMGGFEFLPPPLSDYYDGVRRCAGDVLTEAQINECQELGVMVDRDDEGVLLQIFTKPVGDRPTFFLEIIQRIGCMEKDEKGQEYQKGGCGGFGKGNFGQLFKSIEDYEKSLEAKRAAAAATAQGS
modifications: Zea mays variant form created by artificial means.
As for B1, in data set [1] (Megatable 3, shuffled variants), the “ON × OFF” value was found to be 0.173 and the “ON × OFF × kcat” value was found to be 6.78. Further, in data set [1] (setting [3]), the “ON × OFF” value is on record as 0.173 and the “ON × OFF × kcat” value was found to be 6.78. Further, in data set [1] (setting [4]), the “Insensitivity, isoxaflutole (DKN), ON × OFF” value was determined as 0.36 and the “Insensitivity, isoxaflutole (DKN), Trait fitness” value was 10.45. For the same molecule, in data set [1] (inhibitor mesotrione), the “Insensitivity, mesotrione, ON × OFF” value came to 0.67 and the “Insensitivity, mesotrione, Trait Fitness” value was found to be 19.6. In data set [1] (inhibitor sulcotrione), the “Insensitivity, sulcotrione, ON × OFF” value is 0.97 and the “Insensitivity, sulcotrione, Trait fitness” value was found to be 28.4. In data set [1] (inhibitor tembotrione), the “Insensitivity, tembotrione, ON × OFF” value was 0.36 and the “Insensitivity, tembotrione, Trait fitness” value is 10.43. For the same molecule, in data set [1] (inhibitor topramezone), the “Insensitivity, topramezone, ON × OFF” value is listed as 0.51 and the “Insensitivity, topramezone, Trait Fitness” value came to 14.86. Further, the ON rate ratio in data set [2] (setting [3]) is on record as 0.697. For the same molecule, the “Insensitivity, isoxaflutole (DKN), Rate ratio ON” value in data set [2] (setting [4]) is on record as 0.82. Further, the “Insensitivity, mesotrione, Rate ratio ON” value in data set [2] (inhibitor mesotrione) is 0.67. For the same molecule, the “Insensitivity, sulcotrione, Rate ratio ON” value in data set [2] (inhibitor sulcotrione) came to 0.80. Further, the “Insensitivity, tembotrione, Rate ratio ON” value in data set [2] (inhibitor tembotrione) worked out at 0.84. Further, the “Insensitivity, topramezone, Rate ratio ON” value in data set [2] (inhibitor topramezone) was 0.85.

The values are drawn from patent publication US11015206B2, “Compositions and methods comprising sequences having hydroxyphenylpyruvate dioxygenase (HPPD) activity” (PIONEER HI-BRED INTERNATIONAL, INC., priority 2014, dated 2021).
